Measured values from the supplement of paper PMC9170038.

System: MS2 coat protein
Assay: apparent KD of MS2 coat protein; designed switch direction (-1 OFF switch, 1 ON switch): 1; higher = weaker reporter binding
Method in brief: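 An oligonucleotide input, 200 uM small-molecule ligand, or no input was present during titration of SNAP-549-labelled MS2 coat protein, which was doubled from 0.7 or 1.5 nM to 3 µM. Designed RNA switches had been transcribed on Illumina chips by stalled E. coli RNA polymerase. Apparent KD per design is the median over clusters of curves fitted to normalised cluster fluorescence.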

[1] = input ligand: microRNA oligo, concentration not stated
[2] = Eterna round: R95, input ligand: FMN 200 uM
[3] = Eterna round: R95, input ligand: microRNA oligo, concentration not stated
[4] = Eterna round: R95, input ligand: none

Sequence	apparent KD of MS2 coat protein (input ligand: FMN 200 uM) [nM]	apparent KD of MS2 coat protein [1] [nM]	apparent KD of MS2 coat protein (input ligand: none) [nM]	apparent KD of MS2 coat protein [2] [nM]	apparent KD of MS2 coat protein [3] [nM]	apparent KD of MS2 coat protein [4] [nM]
AGGUUCGUGCUAGGAUAUCUAGGAUAUGGACGAGGAUUACCCGAGCAGGAUUACCGCACCAGAGGAGAGAAGGAGCAACAAGAG [pwkr ssNG2 2F5 2FMN.13] (Eterna round: R96, puzzle: Same State NG 2)	0.959	5.01	420	–	–	–
GUGCUCGUGUGAGGAUAUGCUUCCGUUUCGGCUGCAGAAGGUACUAUUAUACAUGAGGAUCACCCAUGUCGCUUUUCUCCGGUG [salish99_SSNG1_r04_915] (Eterna round: R96, puzzle: Same State NG 1)	–	21.8	–	–	–	–
GCGCAGCUGAGUGAGGAUAUCGGUGGUAAAACAUGAGGAUCACCCAUGUCCGAAGCUCGGACUUCCGAGAAGGCACCCGGCUGCA [Inisusbeor] (puzzle: Same State 2)	–	–	–	11.9	47.4	73.5
GAAGAACAUGAGGAUCACCCAUGUAGGCGGAAGCUAGGAUAUGCGGGAAAGAAGAGAGAAGCAGAAGGAGUAGGUA [JR_SS1_Sub030] (puzzle: Same State 1)	–	–	–	28.1	28.3	38.2
CGCCAGAGAACAGGAUAUGGGCCGCGGCCUAAGGGCUGCUAACUCACAUGAGGAUCACCCAUGUCCCAGAAGGGUUCCUGGCUG [Gexeso] (Eterna round: R96, puzzle: Same State NG 2)	602	31.4	45.8	–	–	–
UUCCCAGCGGGAGGAUAUGGUGCCUUGUUGGUGCUAGAAGGUCCAACAUGAGGAUCACCCAUGUGGGAGUGGUCUAAUGACCUC [SS NG10LRO08] (Eterna round: R96, puzzle: Same State NG 1)	301	181	347	–	–	–
UAUCCAUAGAUAGGAUAUCAGUAUACAUGAGGAUCACCCAUGUUCUAUUUGGUUUUAAUUUAUUCUGAGAAGGAUCUUGAUGAA [SameState NG2 #1] (Eterna round: R96, puzzle: Same State NG 2)	13.8	16.4	17.6	–	–	–
GGUCCAGCCUGAGCUGGACUAUAGUAUGUACAUGAGGAUCACCCAUGUCAUGUACAAGUAUGUUGUUUGUCUUGAAA [Sensorship 5 - Jieux - Sensor for hsa-mir-208a] (puzzle: Sensor for hsa-mir-208a)	–	–	–	72.3	65.4	103
CCGGUAUAUGGAGGAUAUGGAGCCUUAUUGGCUCCAGAAGGCUAAUAACAUGAGGAUCACCCAUGUCCGGCGGUCAAUAGACCG [Eli NG1ss - 59] (Eterna round: R96, puzzle: Same State NG 1)	66.7	113	336	–	–	–
ACCCAAAGUAUAUGGGAACAGGCUUUUUAACAUGAGGAUCACCCAUGUACUCGUCUUAUAAGCAGUCGAAAGACUGC [Sensor 100 - 2] (puzzle: Sensor for hsa-mir-208a)	–	–	–	487	18	906
GAGUAGUUGGGAGGAUAUCCAUUGUUAUAGAAUGGAGAAGGUUUUAACAUGAGGAUCACCCAUGUAGGACUAUUCCUGUGUAUC [Parity 72 - Jieux - Same State NG 1] (Eterna round: R96, puzzle: Same State NG 1)	13.5	12.2	16.8	–	–	–
AGAAGACAUGAGGAUCACCCAUGUAUGAAAAGUACAGGAUAUCAUGAGCUAAGGUGCGCAUGAGAAGGGUGAAAAU [Aatle] (puzzle: Same State 1)	–	–	–	549	166	70.3
AACAAUCUAUCUGAGGAUAUCAUGUCAAAGACAUGAGGAUCACCCAUGUACCAGGAAACUGGAUAUGAGAAGGCAGAUAGAUUGA [SS2: 1119] (Eterna round: R96, puzzle: Same State 2)	16.6	80	162	–	–	–
CUGAGCAAUCAAGGAUAUCACGUCGAUUAGACGUGAGAAGGUGAUCAUCACAUGAGGAUCACCCAUGUGUUACAUGGAGCUCAG [Brourd's SSNG1/1-A2 mod 4] (Eterna round: R96, puzzle: Same State NG 1)	–	610	–	–	–	–
UUAGCACAUGAGGAUCACCCAUGUACUAUACUCAUAGGAUAUACAAAGUCUUAAGACGUGGUAGAAGGGUGAGGAA [Zaateddi] (puzzle: Same State 1)	–	–	–	101	106	128
GUAGCAUACCGAGGAUAUUCAUUACAUGAGGAUCACCCAUGUUAAUUAUAGGCCAAAAGGCCUUGGGAGAAGGCGGAAUGCUAC [Xeonanis - 20 Mod13] (Eterna round: R96, puzzle: Same State NG 2)	12.2	8.28	13.3	–	–	–

Sequence	apparent KD of MS2 coat protein (input ligand: FMN 200 uM) [nM]	apparent KD of MS2 coat protein [1] [nM]	apparent KD of MS2 coat protein (input ligand: none) [nM]	apparent KD of MS2 coat protein [2] [nM]	apparent KD of MS2 coat protein [3] [nM]	apparent KD of MS2 coat protein [4] [nM]
AGUCCAGCCUGAGCUGGACAAAAGCAUGUACAUGAGGAUCACCCAUGUCAUGUACAAGCUUUUUGCUCGUUUUAAAA [Zipper 46 - 13] (puzzle: Sensor for hsa-mir-208a)	–	–	–	477	12.9	1010
AGAUGUUAAUUAGGAUAUGGACACAUGAGGAUCACCCAUGUAACGAAGAUACGAUGUGGUCAAGUCUAGAAGGGAUAGCUAACA [SameState NG2 #75] (Eterna round: R96, puzzle: Same State NG 2)	39.9	27.3	39	–	–	–
AUCCGGAAGCGAGGAUAUGCAGAGGAUCACCCUGCAGAAGGCGCAAAAGCGAGGAUAUGCAGAGGAUCACCCUGCAGAAGGCGC [pwkr ssNG DX.28] (Eterna round: R96, puzzle: Same State NG 1)	14	12.6	42.1	–	–	–
AGAUGUUAAUUAGGAUAUGGGCACAUGAGGAUCACCCAUGUAUUUUCGAUGCUAUGUGGAGACGUCUAGAAGGGAUGGCUAACA [SameState NG2 #87] (Eterna round: R96, puzzle: Same State NG 2)	198	137	142	–	–	–
GUGCAACCGUGUGAGGAUAUCGGUGAUCAGACAUGAGGAUCACCCAUGUCCGAAGCUCGGAUCUCCGAGAAGGCGCACAGUUGCA [Same State 2 - Mod of Erisin v.6] (puzzle: Same State 2)	–	–	–	92.8	232	296
UAGUGCGUUAGAGGAUAUUCUAAAUAAAAUAAUAAGACAUGAGGAUCACCCAUGUAUGUACAUGGGAAGAAGGCUGAUGUGCUA [Omei SS(NG)2 Bv2] (Eterna round: R96, puzzle: Same State NG 2)	–	342	–	–	–	–
GCCAACGCAUGAGGAUAUGGCACCUUAUUGGUGCCAGAAGGCAUGUGUAUUCACAUGAGGAUCACCCAUGUAUUAUAGUUGGCA [Fiskers NG1ss - 16] (Eterna round: R96, puzzle: Same State NG 1)	18.2	132	176	–	–	–
GGAGCCGGCCUAGGAUAUUUCAUAAAAUAACAUGAGGAUCACCCAUGUAGGCCAGAAGGCCUUGGGAAGAAGGAGGUCGGCUCC [Loop Effect - U28] (Eterna round: R96, puzzle: Same State NG 2)	13.4	23.1	44.4	–	–	–
GCAUUAGGCAUAGGAUAUCCAACAUGAGGAUCACCCAUGUCGCAGCGUGAAAAGAACGCUGCAAAGGAGAAGGAUGCGGUUUAC [Onususa] (Eterna round: R96, puzzle: Same State NG 2)	11.8	18.8	29.9	–	–	–
AAGAUGGUUGUAGGAUAUCCACCACUGAAGGGUGGAGAAGGGCACUCCAACAUGAGGAUCACCCAUGUACUACAAGUAGCAUCG [Eternabot solution 26] (Eterna round: R96, puzzle: Same State NG 1)	267	188	240	–	–	–
AAGAAACAUGAGGAUCACCCAUGUAAUAAUAUGGGAGGAUAUACAAGGACAAUAGUCAAGGUAGAAGGCCUAAGAA [Mat - Same State 1 - Meechl mod - D142] (Eterna round: R96, puzzle: Same State 1)	–	123	–	–	–	–
GAAUUAAGAGUAGGAUAUGUGGGCGAGCUGCCACCCACAUGAGGAUCACCCAUGUAUGGACACUCACAGAAGGGCUUAUUCAAC [Eternabot solution 37] (Eterna round: R96, puzzle: Same State NG 2)	68.8	60.5	64.8	–	–	–
UAACAACAUAUAGAACAAGCGUGCUCGUCACAUGAGGAUCACCCAUGUCUAAGCGCUGUACCUACAUCCUCAGCGCC [Raononbeen] (puzzle: Sensor for hsa-mir-208a)	–	–	–	105	29.2	96.4
GCGAAAGCGGUAGGAUAUCUAGGAUAUGGGAAGAGCUAAGCUUGGAAGUCACUUCACCCAGAAGGAGAGAAGGACACCGAAAGG [pwkr ssNG2 2FMN + F9.3] (Eterna round: R96, puzzle: Same State NG 2)	2990	302	390	–	–	–
UUUGGGUGGCUGGAGGAUAUCCUGGUUGUUACAUGAGGAUCACCCAUGUGCCGCGCGGUUCGCGAGGAGAAGGCUGGCGGCCGUU (puzzle: Same State 2)	–	–	–	–	91.2	–
